US20180185504A1 (Regeneron, published 2018)
Like-named read-outs stand apart in the source and are kept apart here.

Assays:
Assay in all cases: cell-based or functional assay
[1] = target: T1, human prolactin receptor (PRLR) (human, UniProt P16471 25-622)
T1 sequence: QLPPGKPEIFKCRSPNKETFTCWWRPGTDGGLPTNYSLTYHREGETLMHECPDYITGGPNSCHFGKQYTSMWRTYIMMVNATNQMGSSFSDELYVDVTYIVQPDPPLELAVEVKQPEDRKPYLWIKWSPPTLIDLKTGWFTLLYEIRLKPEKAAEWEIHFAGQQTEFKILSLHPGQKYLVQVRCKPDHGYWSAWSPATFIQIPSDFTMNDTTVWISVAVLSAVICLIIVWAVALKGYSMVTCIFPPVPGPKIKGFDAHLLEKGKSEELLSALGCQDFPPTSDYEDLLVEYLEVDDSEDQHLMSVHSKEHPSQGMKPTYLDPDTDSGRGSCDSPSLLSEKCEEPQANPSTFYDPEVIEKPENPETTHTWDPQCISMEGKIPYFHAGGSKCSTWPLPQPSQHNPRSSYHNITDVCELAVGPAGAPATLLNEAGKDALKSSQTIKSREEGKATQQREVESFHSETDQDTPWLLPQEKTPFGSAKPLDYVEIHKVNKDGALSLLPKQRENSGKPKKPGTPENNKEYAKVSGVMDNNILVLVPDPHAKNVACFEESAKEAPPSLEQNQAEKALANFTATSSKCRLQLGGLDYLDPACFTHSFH

[2] = target: T1, human prolactin receptor (PRLR); remark: listed apart in the source
[3] = target: T1, human prolactin receptor (PRLR); remark: listed apart in the source
[4] = target: T1, human prolactin receptor (PRLR); remark: listed apart in the source
[5] = target: T1, human prolactin receptor (PRLR); remark: listed apart in the source

Binder	% Kill, PC3/PRLR cells [1] [%]	IC50, cell viability, PC3/PRLR cells [1] [nM]	% Kill, MCF7/ATCC cells [2] [%]	% Kill, MCF7/PRLR cells [2] [%]	IC50, cell viability, MCF7/ATCC cells [2] [nM]	IC50, cell viability, MCF7/PRLR cells [2] [nM]	% Kill, MCF7/PRLR cells [3] [%]	% Kill, MCF7 cells [3] [%]	% Kill, T47D cells [3] [%]	IC50, cell viability, MCF7/PRLR cells [3] [nM]	IC50, cell viability, MCF7 cells [3] [nM]	IC50, cell viability, T47D cells [3] [nM]	% Kill, T47D cells [4] [%]	IC50, cell viability, T47D cells [4] [nM]	% Kill, MCF7/ATCC cells [5] [%]	% Kill, MCF7/PRLR cells [5] [%]	% Kill, PC3/hPRLR cells [5] [%]	IC50, cell viability, MCF7/ATCC cells [5] [nM]	IC50, cell viability, MCF7/PRLR cells [5] [nM]	IC50, cell viability, PC3/hPRLR cells [5] [nM]
H1H6975N-DM1 (antibody, human IgG1, V domains shown, DM1 conjugated through SMCC linker; attachment residues not stated) VH: EVHLVESGGGLVQPGGSLRLSCAASGFTFSSYEMNWVRQTPGKGLEWISHISSRSVIIYYADSVKGRFTISRDNAKNSLFLQMNSLRAEDTAVYFCAGITIFGIPEYWGQGTLVTVSS VL: EIVLTQSPATLSLSPGERATLSCRASQSVSSYFAWYQQKPGQAPRLLIYDASSRATGIPTRFSGSGSGTDFTLTISSLEPEDFAVYYCQQRSSWPITFGQGTRLEIK	68	2.7	70	80	200	0.2	87	73	80	0.49	150	6.9	100	2						
H1H6765P-DM1 (antibody, human IgG1, V domains shown, DM1 conjugated through SMCC linker; attachment residues not stated) VH: EVQLVESGGGVVRPGGSLRLSCVGSGFSFDDHGMNWVRQGPGKGLEWVSGFNWNGGSTNYAESVKGRFTISRDNARNSLFLQMNSLRAEDTALYYCVRGRSGWFNDAFDVWGPGTMVTVSS VL: EIVLTQSPGTLSLSPGERATLSCRASQTINSNYLAWYRQKPGQTPRLLIYGTSSRATGIPDRFSGSGSGTDFSLTISRLEPEDFAVFYCQQYAGLPTFGPGTKVDIK	70	0.57	70	90	150	0.3	84	68	78	0.18	150	1.63	90	1	71	81	83	90	0.1	0.3
